Source: patent US20050037963

Key:
[1] = tested on: HA-tagged full-length FIP200 (pKH3-FIP200, residues 1-1591)
[2] = tested on: GST fusion protein containing CT-FIP (pGEX-CT-FIP)

Sequence of FAK immunoprecipitated from Chinese hamster ovary cells overexpressing FAK (Q05397 2-1052): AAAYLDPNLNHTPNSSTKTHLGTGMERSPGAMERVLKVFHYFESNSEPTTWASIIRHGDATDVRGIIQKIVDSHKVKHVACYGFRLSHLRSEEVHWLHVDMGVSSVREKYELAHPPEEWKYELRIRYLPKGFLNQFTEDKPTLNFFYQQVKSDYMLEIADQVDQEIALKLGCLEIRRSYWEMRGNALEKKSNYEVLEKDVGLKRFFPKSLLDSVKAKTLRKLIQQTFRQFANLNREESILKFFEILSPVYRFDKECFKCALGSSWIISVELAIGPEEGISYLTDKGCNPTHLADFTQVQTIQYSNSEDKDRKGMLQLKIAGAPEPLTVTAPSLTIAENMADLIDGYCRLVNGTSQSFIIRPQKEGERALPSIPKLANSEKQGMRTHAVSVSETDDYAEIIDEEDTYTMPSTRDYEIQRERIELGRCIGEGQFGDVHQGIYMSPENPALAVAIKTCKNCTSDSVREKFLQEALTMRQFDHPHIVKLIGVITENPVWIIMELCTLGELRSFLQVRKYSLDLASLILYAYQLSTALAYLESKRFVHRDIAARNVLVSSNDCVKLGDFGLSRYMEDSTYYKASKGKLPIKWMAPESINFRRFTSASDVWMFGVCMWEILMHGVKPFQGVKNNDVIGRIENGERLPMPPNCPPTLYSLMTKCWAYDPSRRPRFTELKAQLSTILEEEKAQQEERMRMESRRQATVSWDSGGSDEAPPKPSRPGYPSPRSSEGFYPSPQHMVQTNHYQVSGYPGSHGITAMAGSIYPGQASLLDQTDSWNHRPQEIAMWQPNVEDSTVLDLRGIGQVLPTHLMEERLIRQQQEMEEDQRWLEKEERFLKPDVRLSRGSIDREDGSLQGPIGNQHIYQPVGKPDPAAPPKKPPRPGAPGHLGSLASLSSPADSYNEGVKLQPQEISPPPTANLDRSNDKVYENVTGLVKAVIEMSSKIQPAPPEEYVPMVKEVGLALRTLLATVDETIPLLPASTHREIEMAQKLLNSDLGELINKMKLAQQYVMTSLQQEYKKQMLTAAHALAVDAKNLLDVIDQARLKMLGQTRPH
Sequence of FAK expressed from an expression vector encoding FAK (tag not stated) (Q05397 2-1052): as above

## FAK expressed from an expression vector encoding FAK (tag not stated)
[1]
  rescue of BrdU incorporation (NIH3T3): it rescued the inhibition of BrdU incorporation by FIP200 to the control levels

## FAK immunoprecipitated from Chinese hamster ovary cells overexpressing FAK
GST alone [GST: P08515]
  FAK kinase activity (in vitro kinase assay, E4Y1 as exogenous substrate): GST alone did not have any effect
[2]
  FAK kinase activity (in vitro kinase assay, E4Y1 as exogenous substrate): at lower concentrations (e.g., <5 pmol/reaction), GST fusion proteins containing NT-FIP or MD-FIP reduced FAK kinase activity, whereas CT-FIP did not
